Laboratory results taken from patent US7098304B1, “Assay for the diagnosis of schizophrenia based on a new peptide” (Yeda Research and Development Co. Ltd., priority 1998, dated 2006).

Legend:
[1] = system: SDAs (schizophrenic derived antibodies); assay: Reactivity of proteins to SDAs (platelet autoantibodies from schizophrenic patients), blot with anti-human Fc-HRP; assay type: binding; conditions: number of SDA samples that reacted positively with the enzyme, of 8 patients
Protocol: (§1) 1. Platelets and Anti-Platelet Autoantibodies Venous blood (20 ml) was drawn with heparin as anticoagulant from patients and control subjects. Platelet rich plasma (PRP) was obtained by centrifugation (100 g for 20 mins) at room temperature. Plasma free platelets were obtained by washing them three times with phosphate buffered saline (PBS) supplemented with 10 ml mM EDTA as anticoagulant (4000 g; 15 mins; 4° C.). For the isolation of anti-platelet antibodies, the platelets were incubated with 0.1 M glycine/10 mM EDTA, pH 2.8, for 10 min. at room temperature and then centrifuged (4000 g; 15 min; 4° C.). The supernatant containing the anti-platelet antibodies, was neutralized with saturated Na2PO4 solution and stored at −20 until use. 2. Preparative Isoelectric Focusing
(§2) The fractions were analyzed for immuno-reactivity by polyacrylamide (10%) gel electrophoresis, blotting the proteins onto PVDF membranes and probing the membrane with 1 ml auto-antibodies in 50 ml incubation buffer. Anti-human Fc conjugated to horseradish peroxidase (goat) from SIGMA (1:500 dilution) and Fast-DAB™ (SIGMA) or 4-Chloro-naphthol (SIGMA) were used as color reagent in order to detect bound human anti-platelet antibodies.
(§3) Every fifth fraction (0.1 ml) was dot blotted onto PVDF membranes using the DotBlot device (96 wells) from BioRad. Immuno-reactive fractions were then detected as described above (1.3) […]

[2] = system: NSDAs (non-schizophrenic derived antibodies); assay: Reactivity of proteins to NSDAs (platelet autoantibodies from control non-schizophrenic individuals), blot with anti-human Fc-HRP; assay type: binding; conditions: number of NSDA samples that reacted positively with the enzyme, of 8 controls
Protocol: as §1, §2, §3

B1: G-3-P-Dehydrogenase from bacillus subtilis: glyceraldehyde-3-phosphate dehydrogenase (G3PD) enzyme from bacillus subtilis (protein)
chain: AVKVGINGFGRIGRNVFRAALNNPEVEVVAVNDLTDANMLAHLLQYDSVHGKLDAEVSVDGNNLVVNGKTIEVSAERDPAKLSWGKQGVEIVVESTGFFTKRADAAKHLEAGAKKVIISAPANEEDITIVMGVNEDKYDAANHDVISNASCTTNCLAPFAKVLNDKFGIKRGMMTTVHSYTNDQQILDLPHKDYRRARAAAENIIPTSTGAAKAVSLVLPELKGKLNGGAMRVPTPNVSLVDLVAELNQEVTAEEVNAALKEAAEGDLKGILGYSEEPLVSGDYNGNKNSSTIDALSTMVMEGSMVKVISWYDNESGYSNRVVDLAAYIAKKGL
- Patients (n = 8) Positive [1]: 1/8
- Controls (n = 8) Positive [2]: 2/8

B2: Enolase from Rabbit: commercially available rabbit protein enolase (protein)
chain: AMQKIFAREILDSRGNPTVEVDLHTAKGRFRAAVPSGASTGIYEALELRDGDKSRYLGKGVLKAVEHINKTLGPALLEKKLSVVDQEKVDKFMIELDGTENKSKFGANAILGVSLAVCKAGAAEKGVPLYRHIADLAGNHDLVLPVPAFNVINGGSHAGNKLAMQEFMILPVGASSFREAMRIGAEVYHHLKGVIKAKYGKDATNVGDEGGFAPNILENNEALELLKTAIQAAGYPDKVVIGMDVAASEFHRNGKYDLDFKSPDDPARHITGQKLGELYKSFIKNYPVVSIEDPFDQDDWATWTSFLSGVDIQIVGDDLTVTNPKRIAQAVEKKACNCLLLKVNQIGSVTESIQACKLAQSNGWGVMVSHRSGETEDTFIADLVVGLCTGQIKTGAPCRSERLAKYNQLMRIEEALGDKAVFAGRKFRNPKAK
- Patients (n = 8) Positive [1]: 7/8
- Controls (n = 8) Positive [2]: 1/8
